# Residue numbers refer to the chain shown, from its start.
# T1: full-length keratin-10 (KRT10-FL) (human, UniProt P13645 1-584)
# T1 construct: Keratin-10 (KRT10), residues 1-584, Uniprot ID P13645; also called KRT10-full-length; full-length KRT10; source: expressed from pET21d, purified as inclusion bodies, anion exchange in 6 M urea, dialysed against urea-free buffer
# T1 sequence (looked up): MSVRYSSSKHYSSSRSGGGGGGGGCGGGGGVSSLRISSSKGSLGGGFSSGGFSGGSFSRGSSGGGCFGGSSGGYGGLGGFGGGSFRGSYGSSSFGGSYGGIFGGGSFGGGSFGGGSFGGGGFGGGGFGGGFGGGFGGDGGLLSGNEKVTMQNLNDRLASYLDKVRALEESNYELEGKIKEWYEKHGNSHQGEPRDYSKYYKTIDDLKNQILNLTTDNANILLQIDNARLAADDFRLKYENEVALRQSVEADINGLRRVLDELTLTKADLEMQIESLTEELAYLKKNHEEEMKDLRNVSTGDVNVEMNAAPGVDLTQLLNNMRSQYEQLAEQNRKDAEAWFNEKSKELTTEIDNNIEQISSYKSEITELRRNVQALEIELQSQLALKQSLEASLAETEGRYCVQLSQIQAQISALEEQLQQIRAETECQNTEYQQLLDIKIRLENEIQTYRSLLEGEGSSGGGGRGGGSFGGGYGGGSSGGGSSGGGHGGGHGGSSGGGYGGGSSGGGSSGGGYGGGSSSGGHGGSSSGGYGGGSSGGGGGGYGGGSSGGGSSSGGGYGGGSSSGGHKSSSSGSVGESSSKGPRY
# T2: KRT10 rod domain (KRT10-ROD) (human, UniProt P13645 137-448, M150L)
# T2 construct: Keratin-10 (KRT10), rod domain, residues 137-448, Uniprot ID P13645; M150L introduced to prevent second translation initiation; source: expressed from pET21d, purified as inclusion bodies, anion exchange in 6 M urea, dialysed against urea-free buffer
# T2 sequence: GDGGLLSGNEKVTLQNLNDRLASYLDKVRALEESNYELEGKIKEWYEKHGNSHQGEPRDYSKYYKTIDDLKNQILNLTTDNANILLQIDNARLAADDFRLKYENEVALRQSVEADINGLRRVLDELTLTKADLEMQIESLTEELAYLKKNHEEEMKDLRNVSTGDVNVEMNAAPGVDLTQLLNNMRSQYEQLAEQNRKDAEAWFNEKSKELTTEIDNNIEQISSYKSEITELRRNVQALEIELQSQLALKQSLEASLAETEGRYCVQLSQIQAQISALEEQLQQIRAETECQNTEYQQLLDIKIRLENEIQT
# T3: N321A-BR_(187–385) (S. pneumoniae TIGR4, UniProt A0A0H2URK1 186-384, N321A)
# T3 construct: PsrP, S. pneumoniae TIGR4, residues 187-385, with N321A; source: expressed from pET21d; purification of the mutants not detailed (SEC mentioned)
# T3 sequence: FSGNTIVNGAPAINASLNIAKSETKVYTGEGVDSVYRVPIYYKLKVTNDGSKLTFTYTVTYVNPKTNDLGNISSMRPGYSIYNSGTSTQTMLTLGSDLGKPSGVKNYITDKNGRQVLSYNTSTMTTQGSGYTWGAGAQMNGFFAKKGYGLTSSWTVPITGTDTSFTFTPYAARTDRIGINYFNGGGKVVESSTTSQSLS
# T4: K231A-BR_(187–385) (S. pneumoniae TIGR4, UniProt A0A0H2URK1 186-384, K231A)
# T4 construct: PsrP, S. pneumoniae TIGR4, residues 187-385, with K231A; also called control K231A-BR_(187–385); source: expressed from pET21d; purification of the mutants not detailed (SEC mentioned)
# T4 sequence: T3 sequence with K45A, A135N
# B1: Strep-Tag-II BR_(187–385) (KRT10-binding domain of the pneumococcal serine-rich repeat protein PsrP) (domain or fragment)
# chain: T3 sequence with A135N
# notes: also called STII-BR_(187–385); WT-BR_(187–385)
# B2: KRT10 tail-rod-2B domain (KRT10-TRD) (domain or fragment)
# chain: LKQSLEASLAETEGRYCVQLSQIQAQISALEEQLQQIRAETECQNTEYQQLLDIKIRLENEIQTYRSLLEGEGSSGGGGRGGGSFGGGYGGGSSGGGSSGGGHGGGHGGSSGGGYGGGSSGGGSSGGGYGGGSSSGGHGGSSSGGYGGGSSGGGGGGYGGGSSGGGSSSGGGYGGGSSSGGHKSSSSGSVGESSS
# notes: Keratin-10 (KRT10), tail-rod-2B domain, residues 385-579, Uniprot ID P13645; source: expressed from pET21d, soluble, purified (IMAC, anion exchange)
# What was measured:
# Settings in all cases: both partners purified
# [1] = biological target: T1, full-length keratin-10 (KRT10-FL); assay: ELISA; KRT10 constructs coated on Nunc C96 plates (coating adjusted to KRT10-TRD at about 5 µg/ml), 2% BSA block; STII-BR_(187–385) 23 nM to 3 µM in PBS; detected with Strep-Tactin HRP; four-parameter logistic fit
# [2] = biological target: B2; assay: as above
# [3] = biological target: T2, KRT10 rod domain (KRT10-ROD); assay: as above
# N321A-BR_(187–385) = biological target: T3, N321A-BR_(187–385); assay: ELISA; KRT10-TRD coated; WT-BR_(187–385) and mutated variants at a single concentration of 1 µM; detected with Strep-Tactin HRP; normalised intensities
# K231A-BR_(187–385) = biological target: T4, K231A-BR_(187–385); assay: as above
Binder,EC50 [1],EC50 [2],EC50 [3],binding result (N321A-BR_(187–385)),binding result (K231A-BR_(187–385))
B1,345 nM,345 nM,~1800 nM,,
B2,,,,binds,binds

# Reference: PMC3909270, “The basic keratin 10-binding domain of the virulence-associated pneumococcal serine-rich protein PsrP adopts a novel MSCRAMM fold” (Open Biology, 2014)
